B1: MBP-LSF fusion protein (purified full-length LSF) (natural protein, human, UniProt Q12800 1-502, looked up)
chain: MAWALKLPLADEVIESGLVQDFDASLSGIGQELGAGAYSMSDVLALPIFKQEESSLPPDNENKILPFQYVLCAATSPAVKLHDETLTYLNQGQSYEIRMLDNRKLGELPEINGKLVKSIFRVVFHDRRLQYTEHQQLEGWRWNRPGDRILDIDIPMSVGIIDPRANPTQLNTVEFLWDPAKRTSVFIQVHCISTEFTMRKHGGEKGVPFRVQIDTFKENENGEYTEHLHSASCQIKVFKPKGADRKQKTDREKMEKRTPHEKEKYQPSYETTILTECSPWPEITYVNNSPSPGFNSSHSSFSLGEGNGSPNHQPEPPPPVTDNLLPTTTPQEAQQWLHRNRFSTFTRLFTNFSGADLLKLTRDDVIQICGPADGIRLFNALKGRMVRPRLTIYVCQESLQLREQQQQQQQQQQKHEDGDSNGTFFVYHAIYLEELTAVELTEKIAQLFSISPCQISQIYKQGPTGIHVLISDEMIQNFQEEACFILDTMKAETNDSYHIILK

Legend:
[1] = biological target: B1; assay: pull-down; GST-DNMT1 fusions on beads incubated with 1 ug purified MBP-LSF; immunoblot with anti-LSF; conditions: both partners purified
[2] = biological target: T1, purified full-length DNMT1 (recombinant, baculovirus expressed) (human, UniProt P26358 1-1616); assay: cell-based or functional assay
[3] = biological target: T1, purified full-length DNMT1 …; assay: pull-down; as a4, in the presence of 2.5 uM FQI1; conditions: both partners purified

binding result [1]	Binder	other results
binds	GST-DNMT1 (amino acids 431-836) (domain or fragment, human, UniProt P26358 431-836, looked up) IELFFSGSAKPIYDDDPSLEGGVNGKNLGPINEWWITGFDGGEKALIGFSTSFAEYILMDPSPEYAPIFGLMQEKIYISKIVVEFLQSNSDSTYEDLINKIETTVPPSGLNLNRFTEDSLLRHAQFVVEQVESYDEAGDSDEQPIFLTPCMRDLIKLAGVTLGQRRAQARRQTIRHSTREKDRGPTKATTTKLVYQIFDTFFAEQIEKDDREDKENAFKRRRCGVCEVCQQPECGKCKACKDMVKFGGSGRSKQACQERRCPNMAMKEADDDEEVDDNIPEMPSPKKMHQGKKKKQNKNRISWVGEAVKTDGKKSYYKKVCIDAETLEVGDCVSVIPDDSSKPLYLARVTALWEDSSNGQMFHAHWFCAGTDTVLGATSDPLELFLVDECEDMQLSYIHSKVKVIY	
	B1	DNA methyltransferase activity of purified DNMT1 (80 nM) with His-LSF recombinant protein, molar ratio of His-LSF to DNMT1 from 2:1 to 4:1 [2]: ~2 fold
	GST-LSF (amino acids 65-259), DNA binding domain (domain or fragment, human, UniProt Q12800 65-259, looked up, Cloned into pGEX-5X-1; also called LSF65-259; source: E. coli, captured on Glutathione Sepharose beads) LPFQYVLCAATSPAVKLHDETLTYLNQGQSYEIRMLDNRKLGELPEINGKLVKSIFRVVFHDRRLQYTEHQQLEGWRWNRPGDRILDIDIPMSVGIIDPRANPTQLNTVEFLWDPAKRTSVFIQVHCISTEFTMRKHGGEKGVPFRVQIDTFKENENGEYTEHLHSASCQIKVFKPKGADRKQKTDREKMEKRTP	binding result [3]: binds
binds	GST-DNMT1 (amino acids 1-446) (domain or fragment, human, UniProt P26358 1-446, looked up) MPARTAPARVPTLAVPAISLPDDVRRRLKDLERDSLTEKECVKEKLNLLHEFLQTEIKNQLCDLETKLRKEELSEEGYLAKVKSLLNKDLSLENGAHAYNREVNGRLENGNQARSEARRVGMADANSPPKPLSKPRTPRRSKSDGEAKPEPSPSPRITRKSTRQTTITSHFAKGPAKRKPQEESERAKSDESIKEEDKDQDEKRRRVTSRERVARPLPAEEPERAKSGTRTEKEEERDEKEEKRLRSQTKEPTPKQKLKEEPDREARAGVQADEDEDGDEKDEKKHRSQPKDLAAKRRPEEKEPEKVNPQISDEKDEDEKEEKRRKTTPKEPTEKKMARAKTVMNSKTHPPKCIQCGQYLDDPDLKYGQHPPDAVDEPQMLTNEKLSIFDANESGFESYEALPQHKLTCFSVYCKHGHLCPIDTGLIEKNIELFFSGSAKPIYDDD	

Reference: paper PMC5347793, “Transcription factor LSF-DNMT1 complex dissociation by FQI1 leads to aberrant DNA methylation and gene expression” (Oncotarget, 2016)
